Measurements published in patent US20260028391A1 (HUMABS BIOMED, published 2026).

Assays:
[1] = target: RSV A fusion glycoprotein (F), virus of the neutralisation assays of Tables 54 and 57 (RSV A); assay: cell-based or functional assay
RSV F B N208D = target: T1, RSV F B N208D (RSV B); assay: FACS, % binding to RSV F B variants
T1 construct: whole, on cells

RSV F B S443P = target: T2, RSV F B S443P (RSV B); assay: FACS, % binding to RSV F B variants
T2 construct: whole, on cells; also called mutant S443P

RSV F B K68N-N208S = target: T3, RSV F B K68N-N208S (RSV B); assay: FACS, % binding to RSV F B variants
T3 construct: whole, on cells

RSV F B N201S = target: T4, RSV F B N201S (RSV B); assay: FACS, % binding to RSV F B variants
T4 construct: whole, on cells

RSV F B, B Ref = target: T5, RSV F B, B Ref (RSV B); assay: FACS, % binding to RSV F B variants
T5 construct: whole, on cells

RSV F B N208S = target: T6, RSV F B N208S (RSV B); assay: FACS, % binding to RSV F B variants
T6 construct: whole, on cells; also called mutant N208S

RSV F B K68N-N201S = target: T7, RSV F B K68N-N201S (RSV B); assay: FACS, % binding to RSV F B variants
T7 construct: whole, on cells

RSV-B B9320 F protein = RSV-B B9320 F protein (RSV B, strain B9320); assay: cell-based or functional assay
[2] = target: RSV-B B18537/62 F protein (RSV B, strain B18537/62, UniProt P13843 26-574); assay: cell-based or functional assay
[3] = target: RSV-long strain fusion glycoprotein (F) (RSV, long strain, UniProt P12568 26-574); assay: cell-based or functional assay
biot-RSV-F wt [4] = target: T8, biot-RSV-F wt (respiratory syncytial virus (RSV)); assay: BLI, SA sensor loaded with biot-RSV-F wt, mAb 5 ug/ml, 4 min association, 6 min dissociation
[5] = target: fusion glycoprotein (F) of MPV A GFP (Tables 41 and 43) (metapneumovirus A); assay: cell-based or functional assay
[6] = target: RSV F expressed on transfected Expi293F cells (respiratory syncytial virus (RSV)); assay: flow cytometry, transfected Expi293F cells, fixed and permeabilised
[7] = target: fusion glycoprotein (F) of RSV A GFP (Tables 41 and 42) (respiratory syncytial virus A); assay: cell-based or functional assay
[8] = target: fusion glycoprotein (F) of RSV B GFP (Tables 41 and 42) (respiratory syncytial virus B); assay: cell-based or functional assay
biot-RSV-F wt [9] = target: T8, biot-RSV-F wt; assay: BLI (Octet), biotinylated F on SA sensors, mAb 5 µg/ml
RSV-A F = target: T9, RSV-A F (RSV A); assay: affinity; method not given
T9 construct: also called RSV F A

RSV-B F = target: T10, RSV-B F (RSV B); assay: affinity; method not given
T10 construct: also called RSV F B

[10] = target: RSV B (screening GFP strain) fusion glycoprotein (F) (RSV B); assay: cell-based or functional assay
[11] = target: RSV A2 VR 1540 fusion glycoprotein (F) (RSV A, strain A2 (VR 1540), UniProt P03420 26-574); assay: cell-based or functional assay
[12] = target: RSV A2 (screening GFP strain) fusion glycoprotein (F) (RSV A); assay: cell-based or functional assay
[13] = target: RSV A 2001/3-12 fusion glycoprotein (F) (RSV A, strain A 2001/3-12); assay: cell-based or functional assay
[14] = target: RSV A 2000/3-4 fusion glycoprotein (F) (RSV A, strain A 2000/3-4); assay: cell-based or functional assay
[15] = target: RSV A1997/12-35 fusion glycoprotein (F) (RSV A, strain A1997/12-35); assay: cell-based or functional assay
[16] = target: RSV A1998/3-2 fusion glycoprotein (F) (RSV A, strain A1998/3-2); assay: cell-based or functional assay
[17] = target: RSV Ds Red 5 fusion glycoprotein (F) (RSV, strain printed as Ds Red 5); assay: cell-based or functional assay
[18] = target: T11, RSV fusion glycoprotein (RSV-F), pre-fusion conformation, recombinant protein loaded on sensors (respiratory syncytial virus (RSV), …); assay: ELISA-type titration, OD 405 nm, on Pre-F
T11 construct: also called RSV-F wt; RSV-F protein

[19] = target: post-fusion RSV F protein (respiratory syncytial virus (RSV), …); assay: ELISA-type titration, OD 405 nm, on Post-F
DS-Cav1 RSV F = DS-Cav1 RSV F (respiratory syncytial virus (RSV); …, UniProt P13843 26-513); assay: ELISA on RSV-F Ds-Cav1, 1 ug/ml

B1: MPK190-v1.3-rIgG1m17,1-LS (antibody, V domains shown)
VH: QVQLVESGGGLVKPGGSLTLSCAASGFSISGYGMNWVRQAPGRGLEWVASISASSTYIYYADSMKGRFTISRDNGKTSLYLQMKSLRAEDTAVYYCARAPIEPPYFDLWGRGTLVTVSS
VL: QSVLTQPPSVSGAPGQRVTISCTGSSSNIGAGYDVHWYQHLPGKAPKVLIYGNTNRPSVVPDRFSGSNSGASASLAISGLQAEDEADYFCQSYDRRLSGPIFGGGTKLTVLG
- IC50, neutralization of RSVA [1]: 15.3 ng/mL
- % binding (RSV F B N208D): 60.5%
- % binding (RSV F B S443P): 66.7%
- % binding (RSV F B K68N-N208S): 61.5%
- % binding (RSV F B N201S): 63.1%
- % binding (RSV F B, B Ref): 72.1%
- % binding (RSV F B N208S): 63.4%
- % binding (RSV F B K68N-N201S): 63.3%
- EC50, virus neutralization (Fab testing) (RSV-B B9320 F protein): 0.017 nM
- EC50, virus neutralization (Fab testing) [2]: 0.0247 nM
- EC50, virus neutralization (Fab testing) [3]: 0.105 nM

B2: MPK190-v1.1-rIgG1m17,1-LS (antibody, V domains shown)
VH: B1 VH
VL: QSVLTQPPSVSGAPGQRVTISCTGSNSNIGAGYDVHWYQHLPGKAPKVLIYGNNNRPSVVPDRFSGSNSGASASLAISGLQAEDEADYFCQSYDRRLSGPIFGGGTKLTVL
notes: also called MPK190-v1.1-rIgG1-LS
- Kd (biot-RSV-F wt [4]): < 0.001 nM
- IC50 (ng/ml), MPV A GFP neutralization [5]: 4.03 ng/mL
- Binding (FACS) relative to parental mAb MPK190-v1.1 [6]: 1
- IC50 (ng/ml), RSV A GFP neutralization [7]: 3.54 ng/mL
- IC50 (ng/ml), RSV B GFP neutralization [8]: 3.39 ng/mL
- Kd (biot-RSV-F wt [9]): < 0.001 nM

B3: MPK190-v1.3-rIgG1m17,1-LS (antibody, V domains shown)
VH: B1 VH
VL: B1 VL
notes: also called MPK190-v1.3-rIgG1-LS
- Kd (biot-RSV-F wt [4]): < 0.001 nM
- IC50 (ng/ml), MPV A GFP neutralization [5]: 5.99 ng/mL
- Binding (FACS) relative to parental mAb MPK190-v1.1 [6]: 0.9
- IC50 (ng/ml), RSV A GFP neutralization [7]: 3.18 ng/mL
- IC50 (ng/ml), RSV B GFP neutralization [8]: 2.38 ng/mL
- Kd (biot-RSV-F wt [9]): < 0.001 nM

B4: MPK176-rIgG1-LS (antibody, V domains shown)
VH: QVQLVQSGAEVKKPGASVRVSCKASGYTLTAYGISWVRQAPGQGLEWMGWISPKHGNTHYAQRFQGRVTMTTDTSTSTAYMELRSLRPDDTAVYFCAREGVDIMAVPWYFDYWGQGTLVAVSS
VL: SYELTQPPSVSVAPGQTARISCGGNNIGSKSVHWYQQKPGQAPVVVVYDDSDRPSGIPERFSGSNSGNTATLTISGVEAGDEADYFCQVWDSATDHWVFGGGTKLTVL
notes: Recombinant human IgG1 with M428L/N434S (LS)
- Kd (RSV-A F): 0.0591 nM
- Kd (RSV-B F): 0.001 nM
- IC50, virus neutralization [10]: 2.19 ng/mL
- IC50, virus neutralization [11]: 2.87 ng/mL
- IC50, virus neutralization [12]: 4.15 ng/mL
- IC50, virus neutralization [13]: 2.12 ng/mL
- IC50, virus neutralization [14]: 2.3 ng/mL
- IC50, virus neutralization [15]: 2.08 ng/mL
- IC50, virus neutralization [16]: 2.45 ng/mL
- IC50, virus neutralization [17]: 1.06 ng/mL

B5: MPH12 (antibody, V domains shown)
VH: QVQLVESGGGLVKPGGSLRLSCVASGFTFSGFYMKWIRQAPGKGLEWVSSISASGSYTNYADSVEGRFTVSRDNAKNSLFLLMSSLRAEDTAVYYCARGDSYCGASACHGEFFHKWGQGTLVTVSS
VL: QSVLTQPPSVSGAPGQRVTISCTGSDSNIGADFDVHWYQQLPGTAPKLLIYGNINRPSGVPDRFSGSRSGTSAFLAITRLQAEDEADYYCQSYDRSLHYVFGAGTKVTVL
notes: also called MPH12-rIgG1; MPH12-rIgG1-LS
- EC50 (read off the curve) [18]: ~10 ng/mL
- EC50 (read off the curve) [19]: ~30 ng/mL
- EC50 (read off the curve) (DS-Cav1 RSV F): ~2 ng/mL
